Sequences and labels used below:
B1: RHOBTB1 (parent)
chain: TFGDHHKDRRFAYGRSDVVVLCFS
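Also: lentivirally expressed fusions sorted by FACS into six bins by GFP to DsRed ratio, PSI derived from sequencing read proportions per bin multiplied by bin number.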

Variants of B1 are the subject of this data set. Description: protein stability index of a GFP-peptide fusion (GPS, HEK-293T) (PSI 1-6); higher = more stable. As to conditions: c terminus: a fixed tail appended.
Consider TFGDHHKDRRFAYGRSDAVVLCFS, for which the protein stability index came out at 1.74.

Turning to TFGDHHKDRRFAYGRSDCVVLCFS, the protein stability index stood at 2.01.

As to TFGDHHKDRRFAYGRSDDVVLCFS, the protein stability index amounted to 2.03.

As to TFGDHHKDRRFAYGRSQVVVLCFS, the protein stability index was found to be 2.43.

For the variant TFGDHHKDRRFAYGRSIVVVLCFS, the protein stability index came to 3.11.

As for TFGDHHKDRRFAYGRSWVVVLCFS, the protein stability index was found to be 2.78.

TFGDHHKDRRFAYGRSKVVVLCFS: the protein stability index came to 1.63.

As for TFGDHHKDRRFAYGRSTVVVLCFS, the protein stability index came out at 2.67.

As to TFGDHHKDRRFAYGRSMVVVLCFS, the protein stability index worked out at 3.13.

Turning to TFGDHHKDRRFAYGRSFVVVLCFS, the protein stability index worked out at 1.51.

For the variant TFGDHHKDRRFAYGRSRVVVLCFS, the protein stability index was determined as 1.79.

Regarding TFGDHHKDRRFAYGRSNVVVLCFS, the protein stability index was found to be 2.23.

Consider TFGDHHKDRRFAYGRSCVVVLCFS, for which the protein stability index was 3.12.

Take TFGDHHKDRRFAYGRSPVVVLCFS: the protein stability index was determined as 3.44.

Consider TFGDHHKDRRFTYGRSDVVVLCFS, for which the protein stability index stood at 2.65.

On to TFGDHHKDRRFGYGRSDVVVLCFS, for which the protein stability index turned out to be 1.57.

Take TFGDHHKDRRFVYGRSDVVVLCFS: the protein stability index amounted to 1.95.

In the case of TFGDHHKDRRFIYGRSDVVVLCFS, the protein stability index stood at 3.53.

For TFGDHHKDRRFRYGRSDVVVLCFS, the protein stability index was 2.98.

TFGDHHKDRRFKYGRSDVVVLCFS: the protein stability index stood at 1.46.

With TFGDHHKDRRFHYGRSDVVVLCFS, the protein stability index was 3.79.

In the case of TFGDHHKDRRFLYGRSDVVVLCFS, the protein stability index came to 2.48.

In the case of TFGDHHKDRRFDYGRSDVVVLCFS, the protein stability index amounted to 2.58.

In the case of TFGDHHKDRRFEYGRSDVVVLCFS, the protein stability index was 1.93.

Turning to TFGDHHKDRRFQYGRSDVVVLCFS, the protein stability index amounted to 2.33.

As to TFGDHHKDRRFYYGRSDVVVLCFS, the protein stability index is 1.9.

In the case of TFGDHHKDRRFCYGRSDVVVLCFS, the protein stability index was found to be 2.93.

TFGDHHKDRRFAYIRSDVVVLCFS: the protein stability index came to 2.49.

On to TFGDHHKDRRFAYSRSDVVVLCFS, for which the protein stability index amounted to 1.75.

Consider TFGDHHKDRRFAYDRSDVVVLCFS, for which the protein stability index worked out at 2.49.

TFGDHHKDRRFAYTRSDVVVLCFS: the protein stability index turned out to be 3.19.

Take TFGDHHKDRRFAYKRSDVVVLCFS: the protein stability index was 2.61.

On to TFGDHHKDRRFAYFRSDVVVLCFS, for which the protein stability index was 3.41.

On to TFGDHHKDRRFAYRRSDVVVLCFS, for which the protein stability index worked out at 2.76.

Consider TFGDHHKDRRFAYERSDVVVLCFS, for which the protein stability index came to 1.99.

On to TFGDHHKDRRFAYHRSDVVVLCFS, for which the protein stability index amounted to 1.85.

For the variant TFGDHHKDRRFAYVRSDVVVLCFS, the protein stability index was determined as 3.71.

Turning to TFGDHHKDRRFAYNRSDVVVLCFS, the protein stability index was found to be 2.25.

Turning to TFGDHHKDRRFAYQRSDVVVLCFS, the protein stability index turned out to be 3.11.

For TFGDHHKDRRFAYPRSDVVVLCFS, the protein stability index worked out at 3.26.

With TFGDHHKDRRFAYGYSDVVVLCFS, the protein stability index was found to be 3.25.

Consider TFGDHHKDRRFAYGDSDVVVLCFS, for which the protein stability index is 2.36.

For the variant TFGDHHKDRRFAYGPSDVVVLCFS, the protein stability index came to 1.48.

In the case of TFGDHHKDRRFAYGKSDVVVLCFS, the protein stability index was 2.27.

In the case of TFGDHHKDRRFAYGISDVVVLCFS, the protein stability index stood at 2.55.

TFGDHHKDRRFAYGNSDVVVLCFS: the protein stability index is 1.84.

For the variant TFGDHHKDRRFAYGTSDVVVLCFS, the protein stability index worked out at 2.11.

For the variant TFGDHHKDRRFAYGLSDVVVLCFS, the protein stability index was found to be 2.23.

Take TFGDHHKDRRFAYGVSDVVVLCFS: the protein stability index was 4.25.

With TFGDHHKDRRFAYGASDVVVLCFS, the protein stability index was determined as 2.04.

Consider TFGDHHKDRRFAYGSSDVVVLCFS, for which the protein stability index came out at 2.34.

With TFGDHHKDRRFAYGQSDVVVLCFS, the protein stability index stood at 2.66.

For the variant TFGDHHKDRRFAYGESDVVVLCFS, the protein stability index was 1.75.

Consider TFGDHHKDRVFAYGRSDVVVLCFS, for which the protein stability index was 2.19.

Regarding TFGDHHKDRRPAYGRSDVVVLCFS, the protein stability index was 1.89.

For TFGDHHKDRRNAYGRSDVVVLCFS, the protein stability index is 2.49.

On to TFGDHHKDRRHAYGRSDVVVLCFS, for which the protein stability index turned out to be 2.37.

TFGDHHKDRRSAYGRSDVVVLCFS: the protein stability index was found to be 1.13.

TFGDHHKDRRYAYGRSDVVVLCFS: the protein stability index stood at 1.27.

As to TFGDHHKDRRAAYGRSDVVVLCFS, the protein stability index came out at 1.69.

Take TFGDHHKDRRWAYGRSDVVVLCFS: the protein stability index stood at 2.28.

As to TFGDHHKDRREAYGRSDVVVLCFS, the protein stability index was 1.49.

As to TFGDHHKDRRKAYGRSDVVVLCFS, the protein stability index amounted to 1.35.

With TFGDHHKDRRDAYGRSDVVVLCFS, the protein stability index was found to be 1.78.

Turning to TFGDHHKDRRLAYGRSDVVVLCFS, the protein stability index was determined as 1.98.

As for TFGDHHKDRRIAYGRSDVVVLCFS, the protein stability index was 2.38.

As for TFGDHHKDRRFAMGRSDVVVLCFS, the protein stability index came to 1.55.

For TFGDHHKDRRFAEGRSDVVVLCFS, the protein stability index was found to be 1.93.

TFGDHHKDRRFAIGRSDVVVLCFS: the protein stability index came out at 3.14.

With TFGDHHKDRRFARGRSDVVVLCFS, the protein stability index was found to be 1.33.

For the variant TFGDHHKDRRFAGGRSDVVVLCFS, the protein stability index came out at 1.46.

For the variant TFGDHHKDRRFAPGRSDVVVLCFS, the protein stability index amounted to 1.04.

In the case of TFGDHHKDRRFANGRSDVVVLCFS, the protein stability index was 2.36.

For the variant TFGDHHKDRRFASGRSDVVVLCFS, the protein stability index was determined as 2.66.

With TFGDHHKDRRFAAGRSDVVVLCFS, the protein stability index is 1.36.

For the variant TFGDHHKDRRFACGRSDVVVLCFS, the protein stability index worked out at 2.38.

Take TFGDHHKDRRFAHGRSDVVVLCFS: the protein stability index was 2.49.

In the case of TFGDHHKDRRFAQGRSDVVVLCFS, the protein stability index stood at 2.78.

On to TFGDHHKDRRFAKGRSDVVVLCFS, for which the protein stability index was determined as 2.4.

With TFGDHHKDRRFATGRSDVVVLCFS, the protein stability index was 1.62.

For TFGDHHKDRRFADGRSDVVVLCFS, the protein stability index amounted to 2.16.

On to TFGDHHKDRRFAYGRLDVVVLCFS, for which the protein stability index came to 2.15.

Turning to TFGDHHKDRRFAYGRNDVVVLCFS, the protein stability index worked out at 2.38.

Turning to TFGDHHKDRRFAYGRMDVVVLCFS, the protein stability index turned out to be 2.96.

Regarding TFGDHHKDRRFAYGRDDVVVLCFS, the protein stability index turned out to be 2.52.

For TFGDHHKDRRFAYGRIDVVVLCFS, the protein stability index was 1.57.

TFGDHHKDRRFAYGRYDVVVLCFS: the protein stability index came out at 1.23.

In the case of TFGDHHKDRRFAYGRPDVVVLCFS, the protein stability index was found to be 3.17.

As for TFGDHHKDRRFAYGRKDVVVLCFS, the protein stability index worked out at 2.43.

Take TFGDHHKDRRFAYGRQDVVVLCFS: the protein stability index worked out at 2.83.

With TFGDHHKDRRFAYGRADVVVLCFS, the protein stability index came out at 4.21.

For the variant TFGDHHKDRRFAYGRHDVVVLCFS, the protein stability index turned out to be 2.91.

Regarding TFGDHHKDRRFAYGREDVVVLCFS, the protein stability index amounted to 2.07.

For the variant TFGDHHKDRRFAYGRWDVVVLCFS, the protein stability index was 2.29.
